The target in the series is APE1 wild type (human) (UniProt P27695). The series can be described thus: EMSA. The settings on record: 1 mM EDTA (no catalysis); apparent KD; N at position 16 of strand 1 = abasic ribonucleotide analog (tetrahydrofuran with 2'-OH); EMSA: 2 nM DNA, 0-20 nM APE1, 50 mM Tris pH 8, 1 mM EDTA, 0.2 mg/ml BSA, 1 mM DTT, 5% sucrose, 30 min on ice, 10% native gel. (In general: Mobility shift assays separate free from complexed probe on a gel.)

Here are results for one sequence from article PMC8207216.

Chain of UniProt P27695 (P27695 whole entry): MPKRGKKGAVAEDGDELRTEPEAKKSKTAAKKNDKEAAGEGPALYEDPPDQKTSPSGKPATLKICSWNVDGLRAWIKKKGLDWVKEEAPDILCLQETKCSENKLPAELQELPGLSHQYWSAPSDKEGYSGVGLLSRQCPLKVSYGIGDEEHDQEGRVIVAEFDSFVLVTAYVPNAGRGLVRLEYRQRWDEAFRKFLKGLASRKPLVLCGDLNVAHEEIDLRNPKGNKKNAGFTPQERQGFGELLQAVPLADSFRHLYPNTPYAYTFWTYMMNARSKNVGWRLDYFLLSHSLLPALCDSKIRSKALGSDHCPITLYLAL

As to “CGTTCGCTGATGCGCNCGACGGATCCGCAT / ATGCGGATCCGTCGAGCGCATCAGCGAACG [30-mer rAP DNA]”, the Kd was 2.9 nM.
